Experimental data: patent publication US20190381171A1, “CO-USE OF ANTI-BCMA ANTIBODY AND ANTIBODY-COUPLED T CELL RECEPTOR (ACTR) IN CANCER THERAPY AND B CELL DISORDERS” (UNUM THERAPEUTICS INC., priority 2017, published 2019)

What was measured:
Format in all cases: cell-based, human
NCI-H929 target cells [1] = assay: Activation markers (CD25, CD69) on ACTR T-cells by flow cytometry; details: ACTR variant SEQ ID NO: 1, E:T 1:1, 1 μg/mL antibody, 24 hours
Method: T-cells (effector; E) and target cells (target; T) were incubated at a 1:1, effector-to-target ratio (30,000 T cells; 30,000 target cells) with 1 μg/mL of anti-BCMA antibodies in a 200-μL reaction volume in RPMI 1640 media supplemented with 10% fetal bovine serum. Reactions were incubated in a CO2 (5%) incubator at 37 degrees C. for 24 hours. Geometric Mean Fluorescence intensity (gMFI) of two activation markers, CD25 and CD69 were determined in the total CD3+ CD16+ ACTR T-cell gate via flow cytometry. Briefly, cells were washed twice in staining buffer before being stained with a Live/Dead eFluor-450 dye for 30 min at 4 degrees C. After incubating in the live/dead cell stain, cells were washed twice and incubated with 100 μL of an antibody cocktail consisting of AF488-conjugated anti-human CD3 antibody, APC-conjugated anti-human CD16 antibody, PerCP-Cy5.5-conjugated anti-human CD25 antibody, and BV510-conjugated anti-human CD69 antibody. Subsequently, cells were washed twice, fixed, permeabilized, and stained for intracellular molecules prior to detection via flow cytometry. […]
T-cells (effector; E) and NCI-H929 target cells (target; T) were incubated at varying effector-to-target ratios in the presence of 1 μg/mL hSG16.17 SEA antibody. […] The geometric mean fluorescence intensity of CD25 was calculated within the CD3+ T-cell gate and was plotted as a function of E:T ratio (FIG. 17).

U266B1 target cells [2] = assay: Cytotoxicity assay with luciferase-expressing target cells and ACTR T-cells
Method: (§1) T-cells expressing ACTR variant SEQ ID NO: 1 (effector; E) and target cells (target; T) were incubated at a 4:1, effector-to-target ratio (120,000 T cells; 30,000 target cells) with increasing concentrations of various chimeric anti-BCMA antibodies (FIG. 3, parts A and B), humanized anti-BCMA antibody clones (FIG. 5, parts A and B), or anti-BCMA antibodies derived from the NCI-murine BCMA CAR sequence shown in WO2010104949A2 (FIG. 6, parts A and B) in a 200-μL reaction volume with RPMI 1640 media supplemented with 10% fetal bovine serum. The chimeric and humanized antibodies analyzed included fucosylated and afucosylated (labeled as “SEA”) versions of the SG16.17 and SG16.45 anti-BCMA antibodies. Reactions were incubated in a CO2 (5%) incubator at 37 degrees C. for 24 or 48 hours. An equal volume of Bright-Glo luciferase assay reagent (Promega; Madison, Wis.) was added prior to a 10 minute room temperature incubation. Luminescence was measured using an EnVision Multi-label plate reader (PerkinElmer; Waltham, Mass.). The percentage of live cells was determined by dividing the luminescence signal of a given sample by the luminescence signal in the absence of antibody and multiplying by 100. The percent cytotoxicity was determined by subtracting the percentage of live cells from 100. The percentage of antibody specific cytotoxicity (%) was then plotted as a function of antibody concentration.
(§2) In FIG. 8, T-cells expressing ACTR variant SEQ ID NO: 1 (effector; E) and target cells (target; T) were incubated at a 4:1, effector-to-target ratio (120,000 T cells; 30,000 target cells) with increasing concentrations of humanized afucosylated (SEA) anti-BCMA antibody SG16.17 in a 200-μL reaction volume in RPMI 1640 media supplemented with 10% fetal bovine serum. Target-cell luminescence was measured and percent cytotoxicity was determined as in Example 3.
(§3) T-cells (effector; E) and target cells (target; T) were incubated at varying effector-to-target (E:T) cell ratios in the presence of 10 μg/mL anti-BCMA antibody (FIG. 13), in a 200-μL reaction volume in RPMI 1640 media supplemented with 10% fetal bovine serum. The antibodies included fucosylated and afucosylated (SEA) versions of the two anti-BCMA antibodies (SG16.17 and SG16.45). […] Target cell luminescence was measured and percent cytotoxicity was determined as in Example 3.
(§4) In FIG. 18, T-cells (effector; E) and target cells (target; T) were incubated at a 4:1, effector-to-target ratio (30,000 target cells) with increasing concentration of humanized afucosylated anti-BCMA antibody hSG16.17SEA in a 200-μL reaction volume in RPMI 1640 media supplemented with 10% fetal bovine serum. […] Target cell luminescence was measured and percent cytotoxicity was determined as described in Example 3.

NCI-H929 target cells [3] = assay: as above
Method: as §1, §2, §3, §4

U266B1 target cells [4] = assay: Activation markers (CD25, CD69) on ACTR T-cells by flow cytometry; details: ACTR variant SEQ ID NO: 1, E:T 1:1, 1 μg/mL antibody, 24 hours
Method: T-cells (effector; E) and target cells (target; T) were incubated at a 1:1, effector-to-target ratio (30,000 T cells; 30,000 target cells) with 1 μg/mL of anti-BCMA antibodies in a 200-μL reaction volume in RPMI 1640 media supplemented with 10% fetal bovine serum. Reactions were incubated in a CO2 (5%) incubator at 37 degrees C. for 24 hours. Geometric Mean Fluorescence intensity (gMFI) of two activation markers, CD25 and CD69 were determined in the total CD3+ CD16+ ACTR T-cell gate via flow cytometry. Briefly, cells were washed twice in staining buffer before being stained with a Live/Dead eFluor-450 dye for 30 min at 4 degrees C. After incubating in the live/dead cell stain, cells were washed twice and incubated with 100 μL of an antibody cocktail consisting of AF488-conjugated anti-human CD3 antibody, APC-conjugated anti-human CD16 antibody, PerCP-Cy5.5-conjugated anti-human CD25 antibody, and BV510-conjugated anti-human CD69 antibody. Subsequently, cells were washed twice, fixed, permeabilized, and stained for intracellular molecules prior to detection via flow cytometry. Flow cytometry gating on CD3+ CD16+ ACTR T-cells was performed after doublet and dead cell exclusion.

[5] = T-cells expressing ACTR variant SEQ ID NO: 1, E:T 4:1, increasing antibody concentrations, 24 or 48 hours

B1: cSG16.45SEA: afucosylated (SEA) version of the chimeric SG16.45 anti-BCMA antibody (antibody, V domains shown)
VH: EVQLVESGGGLVQPGRSLKLSCVASGFTFNDHWMTWIRQAPGRGLEWISSITNTGGATYYLDSVKGRFTISRDNAKSTLYLQMNSLRSEDTATYYCTSPGLYFDYWGQGVMVTVSS
VL: EIVLTQSPTTTAASPGEKVTITCLATSSVSVMYWYQHKSGASPKLLIYSTSSLASGVPDRFSGSGSGTSYSLTINTMEAEDAATYYCHQWSSDPPTFGSGTKLEIKR
NCI-H929 target cells [1]
  levels of activation markers CD25 and CD69 (gMFI) on ACTR T-cells: enhanced expression of CD25 and CD69 when compared to incubations with their fucosylated counterparts
U266B1 target cells [2]; T-cells expressing ACTR variant SEQ ID NO: 1, 10 μg/mL anti-BCMA antibody, 48 hours
  cytotoxicity at varying E:T ratios: increased potency in comparison to the fucosylated antibodies
U266B1 target cells [2]; [5]
  antibody specific cytotoxicity: increased cytotoxicity when compared with the fucosylated antibodies
NCI-H929 target cells [3]; T-cells expressing ACTR variant SEQ ID NO: 1, 10 μg/mL anti-BCMA antibody, 24 hours
  cytotoxicity at varying E:T ratios: increased potency in comparison to the fucosylated antibodies
NCI-H929 target cells [3]; [5]
  antibody specific cytotoxicity: increased cytotoxicity when compared with the fucosylated antibodies
U266B1 target cells [4]
  levels of activation markers CD25 and CD69 (gMFI) on ACTR T-cells: enhanced expression of CD25 and CD69 when compared to incubations with their fucosylated counterparts
